Results: patent US20240318146A1, “VASCULARIZED ORGANOIDS” (CHILDREN’S HOSPITAL MEDICAL CENTER, priority 2021, published 2024)

Key:
mesendoderm spheroids = conditions: 50 ng/mL, day 3 to day 7 (FIG. 3C)
Excerpt: To form various organs properly, the endoderm transforms into a primitive gut tube and is then regionalized along the dorsal-ventral (D-V) and anterior-posterior (A-P) axis into foregut, midgut, and hindgut under the control of various signaling pathways: BMP and TGF-b inhibition facilitate foregut formation, while Wnt and FGF activation facilitate mid/hindgut development.

[1] = system: Human pluripotency stem cells; assay: Mesoderm vs. endoderm induction in human pluripotent stem cell spheroids (FOXA2/HAND1 staining, first three days); assay type: cell-based
Method: To recapitulate the gut tube organogenesis in vitro, a 3D suspension culture system to differentiate endoderm and mesoderm concomitantly from human iPSCs was established. By fine-tuning the dosage and timing of Wnt, Nodal (or TGF-b), and BMP activation, mesendoderm spheroids containing both definitive endodermal (DE, FOXA2+) and lateral plate mesoderm (LPM, HAND1+) populations were generated (FIG. 2A). It was also determined that ˜28 hours of the Wnt activation was a good duration for generating appropriate amounts of both DE and LPM populations from the iPSCs (approximately 1:1) (FIG. 2B). LPM derived splanchnic mesoderm (SM, FOXF1+) further gives rise to the mesenchyme surrounding the primitive gut tube. The SM will then differentiate into the connective tissue, smooth muscle cells (SMCs), and blood vessels of the endodermal organs.
• a) At Day −1, dissociate human iPSCs or human ESCs into single cells. • b) Using an Aggrewell plate (StemCell), or other compatible cell collection plate, generate spheroids of the pluripotent cells. Note: the number of cells in each microwell should be between 500-2000 cells. Accordingly, the spheroid diameter range should be from 50-200 μm. • c) Culture the cells in steady condition (37° C. cell incubator) overnight. Note: usually, the spheroid will form at day 0. […]

Embryoid bodies (EBs) = assay: Single-cell RNA-seq of Day 3 meso/endoderm organoids; assay type: cell-based, human; conditions: accumulated stimulation (0, 1, 2, and 3 days), scRNA-seq at day 3 (FIG. 16E)
Excerpt: Embryoid bodies (EBs) receiving various duration of BMP4 stimulation (0, 1, 2, and 3 days) were subjected to single-cell RNA-seq at day 3 (FIG. 16A). They contained both mesoderm and endoderm populations. FIG. 16B depicts a feature plot of cell distributions under different BMP4 treatment durations. FIG. 16C depicts clustering of d3 meso/endoderm based on marker genes. FIG. 16D depicts a reference map comparison of d3 meso/endoderm to CS7 gastrulation human embryo AM: Advanced mesoderm; EM: Emergent mesoderm; PS: Primitive Streak. FIG. 16E depicts a cluster projection of day 3 meso/endoderm organoids to mouse early gastrulation embryos. i. UMAP of mouse E6.5˜E8.5 embryos. ii. Reverse projection of day 3 organoids to mouse embryos map.

[2] = system: human vascularized gut tube organoids; assay: Single-cell RNA-seq of Day 7 vascularized foregut and mid/hindgut organoids, reverse projection to mouse E8.75 gut tube atlas; assay type: cell-based
Excerpt: FIG. 17A depicts representative UMAP projection of foregut organoid (1-day treatment of BMP4 from day 1-3) and mid/hindgut organoid (3-days treatment of BMP4 from day 1-3). FIG. 17B-D depict reverse projection of human vascularized gut tube organoids to mouse E8.75 gut tube atlas. FIG. 17B depicts mouse E8.75 embryonic gut tube containing both anterior (A) and posterior (P) portion. Gut tube (endoderm), mesenchyme, and endothelium populations are segregated into A-P subclusters. FIG. 17C depicts Day 7 foregut organoid reverse projection to mouse E8.75 gut tube. […] FIG. 17D depicts Day 7 mid/hindgut organoid reverse projection to mouse E8.75 tube.

VEGF
vascular network (CD31+) surrounding the FOXA2+ epithelial layer (mesendoderm spheroids): a significant amount of a vascular network (CD31+)

Cc1c[nH]c(-c2cnc(NCCNc3ccc(C#N)cn3)nc2-c2ccc(Cl)cc2Cl)n1 [CHIR99201, reference compound]
mesoderm/endoderm ratio ([1]; Activation of Wnt under different durations, first three days (FIG. 14A)): drastically changed mesoderm/endoderm ratio

B1: BMP4: BMP pathway activator, BMP protein (protein, UniProt P12644 293-408, looked up)
Bone morphogenetic protein 4: SPKHHSQRARKKNKNCRRHSLYVDFSDVGWNDWIVAPPGYQAFYCHGDCPFPLADHLNSTNHAIVQTLVNSVNSSIPKACCVPTELSAISMLYLDEYDKVVLKNYQEMVVEGCGCR
mesoderm/endoderm ratio ([1]; Prolonged treatment (FIG. 14B)): increased mesoderm/endoderm ratio
mesenchymal population (Embryoid bodies (EBs)): augmented mesenchymal population
neural lineage (Embryoid bodies (EBs)): reduced neural lineage
anterior gut tube endoderm and endothelium populations ([2]; Day 7 foregut organoid, one-day treatment compared to no BMP4 (FIG. 17C)): generated purer anterior gut tube endoderm and more anterior endothelium
posterior gut tube endoderm, mesenchyme, and endothelium populations ([2]; Day 7 mid/hindgut organoid, longer treatment during the first three-day differentiation (FIG. 17D)): induced more posterior gut tube endoderm, mesenchyme, and endothelium
